Laboratory results: US10208288B2, “Differentiation of human embryonic stem cells into pancreatic endocrine cells” (Janssen Biotech, Inc., priority 2012, dated 2019)

B1: Activin-A: protein factor, R & D Systems catalogue number 338-AC-010 (protein, UniProt P08476 311-426, looked up)
Inhibin beta A chain: GLECDGKVNICCKKQFFVSFKDIGWNDWIIAPSGYHANYCEGECPSHIAGTSGSSLSFHSTVINHYRMRGHSPFANLKSCCVPTKLRPMSMLYYDDGQNIIKKDIQNMIVEECGCS
B2: Activin-C: protein factor, R & D Systems catalogue number 4879-AC-010 (protein, UniProt P55103 237-352, looked up)
Inhibin beta C chain: GIDCQGGSRMCCRQEFFVDFREIGWHDWIIQPEGYAMNFCIGQCPLHIAGMPGIAASFHTAVLNLLKANTAAGTTGGGSCCVPTARRPLSLLYYDRDSNIVKTDIPDMVVEACGCS
B3: semaphorin 3a: protein factor, R & D Systems catalogue number 1250-S3-025 (protein, UniProt Q14563 21-771, looked up)
Semaphorin-3A: NYQNGKNNVPRLKLSYKEMLESNNVITFNGLANSSSYHTFLLDEERSRLYVGAKDHIFSFDLVNIKDFQKIVWPVSYTRRDECKWAGKDILKECANFIKVLKAYNQTHLYACGTGAFHPICTYIEIGHHPEDNIFKLENSHFENGRGKSPYDPKLLTASLLIDGELYSGTAADFMGRDFAIFRTLGHHHPIRTEQHDSRWLNDPKFISAHLISESDNPEDDKVYFFFRENAIDGEHSGKATHARIGQICKNDFGGHRSLVNKWTTFLKARLICSVPGPNGIDTHFDELQDVFLMNFKDPKNPVVYGVFTTSSNIFKGSAVCMYSMSDVRRVFLGPYAHRDGPNYQWVPYQGRVPYPRPGTCPSKTFGGFDSTKDLPDDVITFARSHPAMYNPVFPMNNRPIVIKTDVNYQFTQIVVDRVDAEDGQYDVMFIGTDVGTVLKVVSIPKETWYDLEEVLLEEMTVFREPTAISAMELSTKQQQLYIGSTAGVAQLPLHRCDIYGKACAECCLARDPYCAWDGSACSRYFPTAKRRTRRQDIRNGDPLTHCSDLHHDNHHGHSPEERIIYGVENSSTFLECSPKSQRALVYWQFQRRNEERKEEIRVDDHIIRTDQGLLLRSLQQKDSGNYLCHAVEHGFIQTLLKVTLEVIDTEHLEELLHKDDDGDGSKTKEMSNSMTPSQKVWYRDFMQLINHPNLNTMDEFCEQVWKRDRKQRRQRPGHTPGNSNKWKHLQENKKGRNRRTHEFERAPRSV
B4: Epigen: protein factor, R & D Systems catalogue number 6629-EP-025 (protein, UniProt Q6UW88 23-154, looked up)
Epigen: AAVTVTPPITAQQGNWTVNKTEADNIEGPIALKFSHLCLEDHNSYCINGACAFHHELEKAICRCFTGYTGERCEHLTLTSYAVDSYEKYIAIGIGVGLLLSGFLVIFYCYIRKRCLKLKSPYNVCSGERRPL

Tested on: cells of the human embryonic stem cell line H1 differentiated to stage 5
Assay: Real-time PCR of pancreatic endoderm/endocrine genes after factors spiked into stage 5 media
Format: cell-based
Settings: for expression of somatostatin / expression of ghrelin / expression of glucagon: 20 ng/ml at S5, mRNA at day 3 of S5, vs control; for expression of somatostatin: FIG. 1B; for expression of ghrelin: FIG. 1C; for expression of glucagon: FIG. 1D; for mRNA expression of insulin / mRNA expression of NKX6.1: factor spiked at day 1 of stage 5, mRNA at day 3 of S5, vs control cultures, Table I: Ephrin-A4 100 ng/ml; for mRNA expression of insulin: Activin A and Activin C 20 ng/ml, FIG. 1A; for expression of hormones / mRNA expression of NKX6.1: Semaphorin 3a 50 ng/ml; for expression of hormones: Epigen 20 ng/ml at S5, compared to untreated cultures; for mRNA expression of NKX6.1: Epigen 20 ng/ml, FIG. 1F
Method: Cells of the human embryonic stem cell line H1 (hESC H1, passage 40) were seeded as single cells at 1×10^5 cells/cm^2 on MATRIGEL™ (1:30 dilution; BD Biosciences, NJ)-coated dishes in mTeSR®1 media (StemCell Technologies, Vancouver, Canada) supplemented with 10 μM of Y27632 (Rock inhibitor, Catalog No. Y0503, SigmaAldrich, St. Louis, Mo.). Forty-eight hours post seeding, cultures were washed in incomplete PBS (phosphate buffered saline without Mg or Ca). Cultures were differentiated into pancreatic endoderm/endocrine lineages as follows: • a) Stage 1 (Definitive Endoderm (DE)—3 days): Cells were cultured for one day in stage 1 media: MCDB-131 medium (Catalog No. 10372-019, Invitrogen, Carlsbad, Calif.) supplemented with 0.1% fatty acid-free BSA (Catalog No. 68700, Proliant, Ankeny, Iowa), 0.0012 g/ml sodium bicarbonate (Catalog No. S3187, SigmaAldrich, St. Louis, Mo.), 1× GlutaMax™ (Invitrogen Catalog No. 35050-079), 4.5 mM D-Glucose (SigmaAldrich Catalog No. G8769), 100 ng/ml GDF8 (R&D Systems, Minneapolis, Minn.) and 1 μM MCX compound (a GSK3B inhibitor, 14-Prop-2-en-1-yl-3,5,7,14,17,23,27-heptaazatetracyclo [19.3.1.1˜2,6˜0.1˜8,12˜]heptacosa-1(25),2(27),3,5,8(26),9,11,21,23-nonaen-16-one, US Patent Application Publication No. 2010-0015711; incorporated herein by reference in its entirety). Cells were then cultured for additional day in MCDB-131 medium supplemented with 0.1% fatty acid-free BSA, 0.0012 g/ml sodium bicarbonate, 1× GlutaMax™, 4.5 mM D-Glucose, 100 ng/ml GDF8, and 0.1 μM MCX compound. Cells were then cultured for an additional day in MCDB-131 medium supplemented with 0.1% fatty acid-free BSA, 0.0012 g/ml sodium bicarbonate, 1× GlutaMax™, 4.5 mM D-Glucose, and 100 ng/ml GDF8, then • b) Stage 2 (Primitive gut tube—2 days): Cells were treated for two days with MCDB-131 medium supplemented with 0.1% fatty acid-free BSA; 0.0012 g/ml sodium bicarbonate; 1× GlutaMax™; 4.5 mM D-Glucose; 0.25 mM ascorbic acid (Sigma, St. Louis, Mo.) and 25 ng/ml FGF7 (R & D Systems, Minneapolis, Minn.), then • c) Stage 3 (Foregut—2 days): Cells were treated with MCDB-131 medium supplemented with a 1:200 dilution of ITS-X (Invitrogen); 4.5 mM Glucose; 1× GlutaMax™; 0.0017 g/ml sodium bicarbonate; 2% fatty acid-free BSA; 0.25 μM SANT-1 (Sigma, St. Louis, Mo.); 10 ng/ml of Activin-A (R & D Systems); 1 μM retinoic acid (RA; Sigma); 25 ng/ml FGF7; 0.25 mM ascorbic acid; 200 nM TPB (a PKC activator; Catalog No. 565740; EMD Chemicals, Gibstown, N.J.); 10 μM forskolin (FSK, Sigma), and 100 nM LDN (a BMP receptor inhibitor; Catalog No. 04-0019; Stemgent; San Diego, Calif.) for day 1. On day 2, cells were treated with MCDB-131 medium supplemented with a 1:200 dilution of ITS-X; 4.5 mM Glucose; 1× GlutaMax™; 0.0017 g/ml sodium bicarbonate; 2% fatty acid-free BSA; 0.25 μM SANT-1; 10 ng/ml of Activin A; 1 μM RA; 25 ng/ml FGF7; 0.25 mM ascorbic acid, 200 nM TPB, 10 μM forskolin and 10 nM LDN, then • d) Stage 4 (Pancreatic foregut precursor—2 days); Cells were treated with MCDB-131 medium supplemented with a 1:200 dilution of ITS-X; 4.5 mM Glucose; 1× GlutaMax™; 0.0015 g/ml sodium bicarbonate; 2% fatty acid-free BSA; 0.25 μM SANT-1; 50 nM RA; 50 nM LDN-193189; 10 μM forskolin; 0.25 mM ascorbic acid; and 100 nM TPB for two days, then • e) Stage 5 (Pancreatic endoderm/endocrine—3 days): Stage 4 cells were treated with MCDB-131 medium supplemented with a 1:200 dilution of ITS-X; 20 mM Glucose; 1× GlutaMax™; 0.0015 g/ml sodium bicarbonate; 2% fatty acid-free BSA; 0.25 μM SANT-1; 50 nM RA; 10 μM forskolin; 0.25 mM ascorbic acid for three days, with the addition of 100 nM ALk5 inhibitor SD-208 (disclosed in Molecular Pharmacology 2007, 72:152-161) for days 2-3 only.
At day 1 of stage 5, the factors listed in Table I, below, were spiked into the media and upon completion of S5 (day 3 of stage 5) mRNA was collected for PCR analysis of relevant pancreatic endoderm/endocrine genes. As a control, cultures were treated only with the S5 media listed above. […]

Row | Molecule | expression of somatostatin | expression of ghrelin | expression of glucagon | mRNA expression of insulin | expression of hormones | mRNA expression of NKX6.1
1 | B1 | significantly enhanced | suppressing | suppressing | suppressing | – | –
2 | B2 | significantly enhanced | suppressing | suppressing | suppressing | – | –
3 | B3 | – | – | – | – | not affecting | enhanced
4 | B4 | – | – | – | – | not affecting | enhanced
